{"source": "paper PMC8016129", "about": "“Switching the substrate specificity of lysoplasmalogen‐specific phospholipase D” (FEBS Open Bio, 2021)", "proteins": {"B1": {"name": "LyPls-PLD (lysoplasmalogen-specific phospholipase D) (Thermocrispum sp. RD004668; F211L) (protein)", "chain": "TTRTTDNPWLDARVLNMAHAGGENEAPANTLYAFKRAVKLGANMLELDVQSTKDDQLVVIHNATVDQTTDGTGKVRDLTFEQVHELDAAYNFIPGRHAVPGEPPESYPLRGVRTGEKKPPPGYQPSDFAIPKLADVLEAFPRTPINIEIKGTSDADIPSFLHNAKLLARLLKKTGRTDFIVTSLNDLAVAKFHLLAPDIPIAPGMAGLAAYFLLGVKPMHGTVALQIPVRYQGLEIATPEFIRRAHADGYAVHVWFSGTAPDDEATYNRIIDSCADGLMPAYPALLERILDERGIERPGRPGVDPCG", "notes": "recombinant from pET24/lpls-pld in E. coli BL21(DE3); purified on HisTrap HP"}, "B2": {"name": "LyPls-PLD (lysoplasmalogen-specific phospholipase D) (Thermocrispum sp. RD004668; M71G) (protein)", "chain": "B1 chain with M44G, L184F", "notes": "as for B1"}, "B3": {"name": "LyPls-PLD (lysoplasmalogen-specific phospholipase D) (Thermocrispum sp. RD004668; N173A) (protein)", "chain": "B1 chain with N146A, L184F", "notes": "as for B1"}, "B4": {"name": "LyPls-PLD (lysoplasmalogen-specific phospholipase D) (Thermocrispum sp. RD004668; F211C) (protein)", "chain": "B1 chain with L184C", "notes": "as for B1"}, "B5": {"name": "LyPls-PLD (lysoplasmalogen-specific phospholipase D) (Thermocrispum sp. RD004668) (protein)", "chain": "B1 chain with L184F", "notes": "as for B1"}, "B6": {"name": "LyPls-PLD (lysoplasmalogen-specific phospholipase D) (Thermocrispum sp. RD004668; F211T) (protein)", "chain": "B1 chain with L184T", "notes": "as for B1"}, "B7": {"name": "LyPls-PLD (lysoplasmalogen-specific phospholipase D) (Thermocrispum sp. RD004668; W282G) (protein)", "chain": "B1 chain with L184F, W255G", "notes": "as for B1"}}, "key": {"[1]": {"substrate": "CCCCCCCCCCCCCCCC/C=C\\OC[C@@H](O)COP(=O)([O-])OCC[N+](C)(C)C", "test": "released choline by choline oxidase/peroxidase colorimetric assay, Michaelis-Menten fit", "format": "biochemical, Thermocrispum sp. RD004668", "details": "pH 8.0, 50 °C, 1 min, 2 mM CaCl2, substrate micelles", "description": "(§1) released choline by choline oxidase/peroxidase colorimetric assay, Michaelis-Menten fit on LyPls-PLD (lysoplasmalogen-specific phospholipase D)"}, "[2]": {"substrate": "CCCCCCCCCCCCCCCCOC[C@@H](O)COP(=O)([O-])OCC[N+](C)(C)C", "test": "released choline by choline oxidase/peroxidase colorimetric assay, Michaelis-Menten fit", "format": "biochemical, Thermocrispum sp. RD004668", "details": "pH 8.0, 50 °C, 1 min, 2 mM CaCl2, substrate micelles", "description": "as §1"}}, "note": "Positions count from the first letter of the chain named. Names may count otherwise.", "data": [{"protein": "B1", "values": [{"measurement": "Km", "setting": "[1]", "value": "76.7 ± 12.6", "unit": "µM"}, {"measurement": "kcat", "setting": "[1]", "value": "21 ± 0.91", "unit": "s⁻¹"}, {"measurement": "kcat/Km", "setting": "[1]", "value": "271000 ± 46000", "unit": "M⁻¹ s⁻¹"}, {"measurement": "Km", "setting": "[2]", "value": "26.8 ± 8.55", "unit": "µM"}, {"measurement": "kcat", "setting": "[2]", "value": "187 ± 6.3", "unit": "s⁻¹"}, {"measurement": "kcat/Km", "setting": "[2]", "value": "6.97e+06 ± 2.24e+06", "unit": "M⁻¹ s⁻¹"}]}, {"protein": "B2", "values": [{"measurement": "Km", "setting": "[1]", "value": "64.8 ± 4.18", "unit": "µM"}, {"measurement": "kcat", "setting": "[1]", "value": "57 ± 2.5", "unit": "s⁻¹"}, {"measurement": "kcat/Km", "setting": "[1]", "value": "880000 ± 68500", "unit": "M⁻¹ s⁻¹"}, {"measurement": "Km", "setting": "[2]", "value": "69.3 ± 10.2", "unit": "µM"}, {"measurement": "kcat", "setting": "[2]", "value": "72 ± 2.9", "unit": "s⁻¹"}, {"measurement": "kcat/Km", "setting": "[2]", "value": "1.04e+06 ± 159000", "unit": "M⁻¹ s⁻¹"}]}, {"protein": "B3", "values": [{"measurement": "Km", "setting": "[1]", "value": "200 ± 42.3", "unit": "µM"}, {"measurement": "kcat", "setting": "[1]", "value": "42 ± 3.9", "unit": "s⁻¹"}, {"measurement": "kcat/Km", "setting": "[1]", "value": "212000 ± 49000", "unit": "M⁻¹ s⁻¹"}, {"measurement": "Km", "setting": "[2]", "value": "110 ± 17.1", "unit": "µM"}, {"measurement": "kcat", "setting": "[2]", "value": "106 ± 4.0", "unit": "s⁻¹"}, {"measurement": "kcat/Km", "setting": "[2]", "value": "965000 ± 153000", "unit": "M⁻¹ s⁻¹"}]}, {"protein": "B4", "values": [{"measurement": "Km", "setting": "[2]", "value": "52.2 ± 9.44", "unit": "µM"}, {"measurement": "kcat", "setting": "[2]", "value": "207 ± 15", "unit": "s⁻¹"}, {"measurement": "kcat/Km", "setting": "[2]", "value": "3.96e+06 ± 769000", "unit": "M⁻¹ s⁻¹"}]}, {"protein": "B5", "values": [{"measurement": "Km", "setting": "[1]", "value": "88.9 ± 8.76", "unit": "µM"}, {"measurement": "kcat", "setting": "[1]", "value": "122 ± 3.47", "unit": "s⁻¹"}, {"measurement": "kcat/Km", "setting": "[1]", "value": "1.37e+06 ± 141000", "unit": "M⁻¹ s⁻¹"}, {"measurement": "Km", "setting": "[2]", "value": "56.4 ± 16.9", "unit": "µM"}, {"measurement": "kcat", "setting": "[2]", "value": "74 ± 4.9", "unit": "s⁻¹"}, {"measurement": "kcat/Km", "setting": "[2]", "value": "1.3e+06 ± 400000", "unit": "M⁻¹ s⁻¹"}]}, {"protein": "B6", "values": [{"measurement": "Km", "setting": "[2]", "value": "40.6 ± 5.49", "unit": "µM"}, {"measurement": "kcat", "setting": "[2]", "value": "205 ± 8.9", "unit": "s⁻¹"}, {"measurement": "kcat/Km", "setting": "[2]", "value": "5.06e+06 ± 720000", "unit": "M⁻¹ s⁻¹"}]}, {"protein": "B7", "values": [{"measurement": "Km", "setting": "[1]", "value": "286 ± 51.7", "unit": "µM"}, {"measurement": "kcat", "setting": "[1]", "value": "10.5 ± 0.95", "unit": "s⁻¹"}, {"measurement": "kcat/Km", "setting": "[1]", "value": "36000 ± 7250", "unit": "M⁻¹ s⁻¹"}, {"measurement": "Km", "setting": "[2]", "value": "71.7 ± 5.26", "unit": "µM"}, {"measurement": "kcat", "setting": "[2]", "value": "4.4 ± 0.082", "unit": "s⁻¹"}, {"measurement": "kcat/Km", "setting": "[2]", "value": "60900 ± 4630", "unit": "M⁻¹ s⁻¹"}]}]}
